Values belong to the binder of their own block, whether it stands above or below them.
B5: TGF-β2 homodimer (growth factor domain), unlabelled (ligand)
chain: ALDAAYCFRNVQDNCCLRPLYIDFKRDLGWKWIHEPKGYNANFCAGACPYLWSSDTQHSRVLSLYNTINPEASASPCCVSQDLEPLTILYYIGKTPKIEQLSNMIVKSCKCS

Assays:
[1] = biological target: T1, TGF-β receptor type II (TGFBR2), extracellular domain (UniProt P37173 23-166); experiment: SPR; 1 µM ratBGO-Y248A
[2] = biological target: T1, TGF-β receptor type II (TGFBR2), …; experiment: SPR; 1 µM zfBGO
[3] = biological target: T1, TGF-β receptor type II (TGFBR2), …; experiment: SPR; 1 µM ratBGO-zfBL
[4] = biological target: T1, TGF-β receptor type II (TGFBR2), …; experiment: SPR; 1 µM ratBGO
[5] = biological target: T1, TGF-β receptor type II (TGFBR2), …; experiment: SPR
[6] = biological target: B5; experiment: SPR
[7] = biological target: T2, inhibin A (InhA), mature heterodimer, unlabelled (UniProt P05111 233-366; P08476 311-426); experiment: SPR
T2 chain 1: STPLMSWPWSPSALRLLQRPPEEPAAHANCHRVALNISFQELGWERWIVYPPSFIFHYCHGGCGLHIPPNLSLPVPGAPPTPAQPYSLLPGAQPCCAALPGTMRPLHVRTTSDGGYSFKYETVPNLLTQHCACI
T2 chain 2: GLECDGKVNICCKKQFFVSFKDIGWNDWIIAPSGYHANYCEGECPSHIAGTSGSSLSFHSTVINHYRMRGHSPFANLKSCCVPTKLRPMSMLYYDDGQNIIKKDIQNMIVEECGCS

[8] = biological target: T3, biotinylated TGF-β2 homodimer (human, biotin (EZ-Link Amine-PEG3-Biotin coupled with EDC and sulfo-NHS)); experiment: SPR
T3 chain: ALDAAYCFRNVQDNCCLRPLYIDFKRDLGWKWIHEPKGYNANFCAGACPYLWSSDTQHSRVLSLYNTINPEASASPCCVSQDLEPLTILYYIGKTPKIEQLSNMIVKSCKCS

B4: TGF-β2 on the chip with ratBGO bound (1 µM ratBGO in the buffer) (complex)
chain 1: ALDAAYCFRNVQDNCCLRPLYIDFKRDLGWKWIHEPKGYNANFCAGACPYLWSSDTQHSRVLSLYNTINPEASASPCCVSQDLEPLTILYYIGKTPKIEQLSNMIVKSCKCS
chain 2: GSPCELSPINASHPVQALMESFTVLSGCASRGTTGLPREVHVLNLRSTDQGPGQRQREVTLHLNPIASVHTHHKPIVFLLNSPQPLVWHLKTERLAAGVPRLFLVSEGSVVQFPSGNFSLTAETEERNFPQENEHLLRWAQKEYGAVTSFTELKIARNIYIKVGEDQVFPPTCNIGKNFLSLNYLAEYLQPKAAEGCVLPSQPHEKEVHIIELITPSSNPYSAFQVDIIVDIRPAQEDPEVVKNLVLILKCKKSVNWVIKSFDVKGNLKVIAPNSIGFGKESERSMTMTKLVRDDIPSTQENLMKWALDNGYRPVTSYTMAPVANRFHLRLENHHHHHH
Kd [4]: 1780 nM

Binder: B5
Kd [5]: > 10000 nM

B7: BGZP-C S155A (protein)
chain: GNATFNMELYNTDLFLVPSPGVFSVAENEHVYVEVSVTKADQDLGFAIQTCFLSPYSNPDRMSDYTIIENICPKDDSVKFYSSKRVHFPIPHAEVDKKRFSFLFKSVFNTSLLFLHCELTLCSRKKGSLKLPRCVTPDDACTALDATMIWTMMQNKKTFTKPLAVVLQ
Kd [8]: 282 nM

B8: BGZP-C E130A (protein)
chain: GNATFNMELYNTDLFLVPSPGVFSVAENEHVYVEVSVTKADQDLGFAIQTCFLSPYSNPDRMSDYTIIENICPKDDSVKFYSSKRVHFPIPHAEVDKKRFSFLFKSVFNTSLLFLHCALTLCSRKKGSLKLPRCVTPDDACTSLDATMIWTMMQNKKTFTKPLAVVLQ
Kd [8]: 1350 nM

Results, then the binder that gave them:

Kd [1]: > 10000 nM
B1: TGF-β2 on the chip with ratBGO-Y248A bound (1 µM ratBGO-Y248A in the buffer) (complex)
chain 1: ALDAAYCFRNVQDNCCLRPLYIDFKRDLGWKWIHEPKGYNANFCAGACPYLWSSDTQHSRVLSLYNTINPEASASPCCVSQDLEPLTILYYIGKTPKIEQLSNMIVKSCKCS
chain 2: GSPCELSPINASHPVQALMESFTVLSGCASRGTTGLPREVHVLNLRSTDQGPGQRQREVTLHLNPIASVHTHHKPIVFLLNSPQPLVWHLKTERLAAGVPRLFLVSEGSVVQFPSGNFSLTAETEERNFPQENEHLLRWAQKEYGAVTSFTELKIARNIYIKVGEDQVFPPTCNIGKNFLSLNYLAEYLQPKAAEGCVLPSQPHEKEVHIIELITPSSNPASAFQVDIIVDIRPAQEDPEVVKNLVLILKCKKSVNWVIKSFDVKGNLKVIAPNSIGFGKESERSMTMTKLVRDDIPSTQENLMKWALDNGYRPVTSYTMAPVANRFHLRLENHHHHHH

Kd [2]: > 10000 nM
B2: TGF-β2 on the chip with zfBGO bound (1 µM zfBGO in the buffer) (complex)
chain 1: ALDAAYCFRNVQDNCCLRPLYIDFKRDLGWKWIHEPKGYNANFCAGACPYLWSSDTQHSRVLSLYNTINPEASASPCCVSQDLEPLTILYYIGKTPKIEQLSNMIVKSCKCS
chain 2: GSPCELLPVGVGHPVQAMLKSFTALSGCASRGTTSHPQEVHIINLRKGSAQGAREKTAEVALHLRPIQSLHVHQKPLVFILNSPQPILWKVRTEKLAPGVKRIFHVVEGSEVHFEVGNFSKSGEVKVETLPHGNEHLLNWAHHRYTAVTSFSELRMAHDIYIKVGEDPVFSETCKIDNKFLSLNYLASYIEPQPSTGCVLSGPDHEQEVHIIELQAPNSSSAFQVDVIVDLRPLDGDIPLHRDVVLLLKGEKSVNWVIKAHKVMGKLEIMTSDTVSLSEDTERLMQVSKTVKQKLPAGSQALIQWAEENGFNPVTSYTNTPVANHFNLRLREHHHHHH

Kd [3]: > 10000 nM
B3: TGF-β2 on the chip with ratBGO-zfBL bound (1 µM ratBGO-zfBL in the buffer) (complex)
chain 1: ALDAAYCFRNVQDNCCLRPLYIDFKRDLGWKWIHEPKGYNANFCAGACPYLWSSDTQHSRVLSLYNTINPEASASPCCVSQDLEPLTILYYIGKTPKIEQLSNMIVKSCKCS
chain 2: GSPCELSPINASHPVQALMESFTVLSGCASRGTTGLPREVHVLNLRSTDQGPGQRQREVTLHLNPIASVHTHHKPIVFLLNSPQPLVWHLKTERLAAGVPRLFLVSEGSVVQFPSGNFSLTAETEERNFPQENEHLLRWAQKEYGAVTSFTELKIARNIYIKVGEDQVFPPTCNIGKNFLSLNYLAEYLQPKAAEGCVLPSQPHEKEVHIIELITPNSSSAFQVDIIVDIRPAQEDPEVVKNLVLILKCKKSVNWVIKSFDVKGNLKVIAPNSIGFGKESERSMTMTKLVRDDIPSTQENLMKWALDNGYRPVTSYTMAPVANRFHLRLENHHHHHH

Kd [6]: 127 nM
Kd [7]: 1070 nM
Kd [8]: 159 nM
B6: rat betaglycan ZP-C domain (BG_(ZP-C)), mammalian-expressed (domain or fragment)
chain: GNATFNMELYNTDLFLVPSPGVFSVAENEHVYVEVSVTKADQDLGFAIQTCFLSPYSNPDRMSDYTIIENICPKDDSVKFYSSKRVHFPIPHAEVDKKRFSFLFKSVFNTSLLFLHCELTLCSRKKGSLKLPRCVTPDDACTSLDATMIWTMMQNKKTFTKPLAVVLQ

From publication PMC11865472 (2025)
